# Source: the emibetuzumab library of Makowski et al. (2022)
# B1: VH:VL chains; a variant is named by its letters at X, in order (parent)
# chain 1: QVQLVQSGAEVKKPGASVKVSCKASGYTFTDYXMHWVRQAPGQGLEWMGXVNPNXXXTTYNQKFEGRVTMTTDTSTSTAYMELRSLRSDDTAVYYCARXNXLDXWGQGTTVTVSS
# chain 2: DIQMTQSPSSLSASVGDRVTITCSVSSSVSSIYLHWYQQKPGKAPKLLIYSTSNLASGVPSRFSGSGSGTDFTLTISSLQPEDFATYYCQVYSGYPLTFGGGTKVEIK
# Variants of: B1
# Experiment: yeast display scFab, FACS + sequencing
# Procedure, shortened: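 For the non-specific binding call, a heavy-chain CDR mutant scFab library on the yeast surface was FACS-sorted and samples from two replicates were deep sequenced. Cells were labelled with anti-Myc and either biotinylated ovalbumin (260 μg/mL in PBSB, 3 h, room temperature) or soluble membrane proteins (130 μg/mL, 20 min on ice), with gates on the top 25% and bottom 10% of binders. With membrane protein and ovalbumin samples pooled, a sequence in ≥3 of 4 positive samples and no negatives was scored positive, and the converse rule scored negatives.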
row,Variant,non-specific binding call
1,AARADAVV,no binding
2,AARADAVY,no binding
3,AARADAVA,no binding
4,FAKEGFWD,binds
5,DAKEGAAA,no binding
6,YATEGVWV,binds
7,DAKEGDLV,no binding
8,SAREGSSA,no binding
9,FAKEGDGD,no binding
10,AARADAGA,no binding
11,YAGTGVVD,binds
12,FATKGFGD,binds
13,YARGTAVD,binds
14,AATTDDAV,no binding
15,FARAGDWV,binds
16,DARGGFGV,no binding
17,VARETDVA,no binding
18,YAKRDAGD,no binding
19,FARGGDAV,no binding
20,VAGTGSSV,no binding
21,VAGTGSSD,no binding
22,VAGTGSSA,no binding
23,VAREDDWA,no binding
24,YATEDSGF,no binding
25,DAKEGSLD,no binding

row,Variant,non-specific binding call
1,SARTDFWF chain 1 K19N,binds
2,YAKRDALA,no binding
3,SATKTVVV,binds
4,AARADSLS,no binding
5,AARADSWV,no binding
6,FARGGSAD,no binding
7,DATGGFGV,no binding
8,FARENFLA chain 1 V51A,binds
9,YARTGFGA,binds
10,YAKADYSS,binds
11,DATGGDWA,no binding
12,VAGTSDGA,no binding
13,VATGSSGA,no binding
14,DARRGSGD,no binding
15,DAKENAGD,no binding
16,AARADFGV,no binding
17,VARAADAD,no binding
18,YARRAAVS,binds
19,YARADAAA,no binding
20,SAREGYSV,binds
21,VATGDDWV,no binding
22,AAKRGSWV,no binding
23,VAKENAVA,no binding
24,DATRSSWD,no binding
25,YATRGAAA,binds

row,Variant,non-specific binding call
1,DARGAYLV,no binding
2,YAKADSGA,binds
3,DARRGAGV,no binding
4,DAGTGSWD,no binding
5,VATRGYLV,binds
6,YATAADWD,no binding
7,AARADSSA,no binding
8,VARGGSVD,no binding
9,VATGDSLV,no binding
10,DARADSLV,no binding
11,SARRGDWA,binds
12,DAKEGDAD,no binding
13,DAKEGDAV,no binding
14,DATGGDAD,no binding
15,DATGGALD,no binding
16,DARGGSAD,no binding
17,YAREGSGA,binds
18,FATGSDGA,no binding
19,DARGGDGS,no binding
20,DATGGDVA,no binding
21,DATGGDVV,no binding
22,DATGGDVF,no binding
23,DATGGDVY,no binding
24,DATGGDVD,no binding
25,DAKENDVA,no binding

row,Variant,non-specific binding call
1,DAKENDVF,no binding
2,YARRGSLD,binds
3,VATKGFVV,no binding
4,DARGGAGA,no binding
5,FATGGSGD,binds
6,DATGGAGD,no binding
7,YARETDGA,no binding
8,AATGSAWA,no binding
9,YATKGFGD,binds
10,YARADDAS,no binding
11,AATTDAGD,no binding
12,VAREDDLS,no binding
13,DATEDDSA,no binding
14,AAKEGALV,no binding
15,FARETFGV,binds
16,AARETVGA,binds
17,DATGNVWS,binds
18,FAGTGSWD,no binding
19,FARKGDGV,no binding
20,DATGGSGA,no binding
21,DATGGSGD,no binding
22,AATRNVGV,binds
23,FARKSYGA,binds
24,YAREDDGA,no binding
25,DATGGSSV,no binding

row,Variant,non-specific binding call
1,DATGGSSA,no binding
2,DATGGSSS,no binding
3,DATGGSSY,no binding
4,YARADSLD,no binding
5,VARADSGV,no binding
6,YAKGDDAS,no binding
7,AATTDSGD,no binding
8,AATTDSGV,no binding
9,VAKADALD,no binding
10,YARADSSD,no binding
11,YARADSSV,no binding
12,DATGGYAV,no binding
13,DAKEGDGV,no binding
14,YARGGDLD,no binding
15,VAKRDSAS,no binding
16,DAKEGDVV,no binding
17,YATEDDWV,no binding
18,VATGDDVY,no binding
19,VATGDDVD,no binding
20,VATGDDVA,no binding
21,YAKGDYSV,no binding
22,SARGGYWY,binds
23,DARADSGV,no binding
24,VATRGFWD,no binding
25,YAKRGSWA,binds

row,Variant,non-specific binding call
1,VAKADDWF,no binding
2,DATRGAGY,no binding
3,DATRGAGD,no binding
4,SAREGDLA,no binding
5,DARGGSLS,no binding
6,DARGGSLD,no binding
7,AARADDGS,no binding
8,AARADDGV,no binding
9,YARAGYAV,binds
10,SAKRDSAS,no binding
11,YAREAALS,binds
12,DAKEGSSA,no binding
13,VATRAVGA,binds
14,DAKEGAGD,no binding
15,DATGGAVA,no binding
16,YARRDVGA,binds
17,DATGGSLD,no binding
18,DARGGDAA,no binding
19,DAKTDDGV,no binding
20,YATGGYAV,no binding
21,SARKGDVA,no binding
22,AARADDVA,no binding
23,AARADDVD,no binding
24,AARADDVY,no binding
25,AARADDAA,no binding

row,Variant,non-specific binding call
1,AARADDAV,no binding
2,VARKGVGV,binds
3,FAKTDAGF chain 1 G108D,binds
4,YARGADGS,no binding
5,YARAGSVS,binds
6,FATRASGD,binds
7,YAKEGDGV,no binding
8,YATAADAD,no binding
9,FAKRGAWS,binds
10,YARETAGV,binds
11,VATGDDGV,no binding
12,SAREGALD,no binding
13,VAKEGAWV,binds
14,YARADDVF,no binding
15,YARADDVA,no binding
16,FATEGASA,no binding
17,SARTDFWF,binds
18,AARADDWV,no binding
19,AARADDWD,no binding
20,SARADSGV,no binding
21,DARGGAVV,no binding
22,DARGGAVY,no binding
23,YATEAFSD,binds
24,DATGGDGV,no binding
25,DATGGDGY,no binding

row,Variant,non-specific binding call
1,DATGGDGA,no binding
2,DATGGDGS,no binding
3,FATKGAWV,binds
4,YARADDSA,no binding
5,YARADSGD,no binding
6,FARAAALD,binds
7,YARGGAGA,no binding
8,DAKKNASF,no binding
9,AARADSAD,no binding
10,YARRGSGV,binds
11,SAREGDAV,no binding
12,DARETFLD,no binding
13,YATGDDGV,no binding
14,DARENAGY,no binding
15,YARRGDGA,binds
16,SAREGDWV,no binding
17,FARGASGV,binds
18,DARGGDVY,no binding
19,DATGGAAA,no binding
20,VATGGYAV,no binding
21,DARGGDWV,no binding
22,DATGGASD,no binding
23,SAGTGSWD,no binding
24,FARKGSGA,binds
25,DAKRDSAS,no binding

row,Variant,non-specific binding call
1,YATKGAWA,binds
2,FAGTSVGS,binds
3,YARADDGS,no binding
4,YARADDGD,no binding
5,FAKAGFVA,binds
6,DAKENAVY,no binding
7,FARKSFGS,binds
8,YATGDDVA,no binding
9,YARETDVV,no binding
10,AARADSGY,no binding
11,AARADSGD,no binding
12,VAKKNASF,no binding
13,FARGGYVA,binds
14,FARKSDSS,no binding
15,DARGGAAV,no binding
16,VATGDFGV,no binding
17,VAREGDLA,no binding
18,DARGGSSA,no binding
19,DARGGSSV,no binding
20,DARGGSSY,no binding
21,DARGGSSS,no binding
22,AARADDSA,no binding
23,AARADDSV,no binding
24,DATGGSVD,no binding
